Measurements as given in FireProtDB (doi:10.1021/bi00252a018).

Settings: Streptomyces albogriseolus, Thermal, DSC, reversible: yes (70-85%), whole UniProt chain shown

B1: Subtilisin inhibitor wild type, P01006 (protein)
chain: MRNTGAGPSPSVSRPPPSAAPLSGAALAAPGDAPSALYAPSALVLTVGKGVSATTAAPERAVTLTCAPGPSGTHPAAGSACADLAAVGGDLNALTRGEDVMCPMVYDPVLLTVDGVWQGKRVSYERVFSNECEMNAHGSSVFAF
Tm (pH 2.9, glycine 25 mM): 44.5 °C | Tm (pH 2.94, glycine 25 mM): 43.9 °C | Tm (pH 2.98, glycine 25 mM): 45.4 °C | Tm (pH 3.03, glycine 25 mM): 47.8 °C | Tm (pH 3.04, glycine 25 mM): 47.6 °C | Tm (pH 3.07, glycine 25 mM): 48.8 °C | Tm (pH 3.12, glycine 25 mM): 50.5 °C | Tm (pH 3.15, glycine 25 mM): 51.3 °C | Tm (pH 3.16, glycine 25 mM): 52.2 °C | Tm (pH 3.2, glycine 25 mM): 53.6 °C | Tm (pH 3.21, glycine 25 mM): 53.4 °C | Tm (pH 3.24, glycine 25 mM): 54.3 °C | Tm (pH 3.25, glycine 25 mM): 55.7 °C | Tm (pH 7, phosphate 25 mM): 82 °C | Tm (pH 9.2, glycine 25 mM): 80.1 °C | Tm (pH 9.75, glycine 25 mM): 80.2 °C
